# T1: purified DJ-1 WT (N-terminal 6×His-tagged) (human), Q99497
# T1 chain: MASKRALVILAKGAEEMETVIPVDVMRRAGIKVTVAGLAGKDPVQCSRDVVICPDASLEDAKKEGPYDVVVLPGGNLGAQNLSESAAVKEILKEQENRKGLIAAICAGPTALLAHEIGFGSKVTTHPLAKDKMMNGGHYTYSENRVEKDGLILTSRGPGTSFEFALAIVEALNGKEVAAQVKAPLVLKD
# Key:
# [1] = target: purified DJ-1 V51C (N-terminal 6×His-tagged) (human) (UniProt Q99497); assay: SEC
# [2] = target: T1, purified DJ-1 WT (N-terminal …); assay: SEC; details: remark: other sources report otherwise
Molecule,percent of protein that is dimer [1] [%],percent of protein that is dimer [2] [%],stoichiometry N [2]
purified DJ-1 V51C (N-terminal 6×His-tagged) (from UniProt Q99497 1-189) (natural protein),15,,
"purified DJ-1 WT (N-terminal 6×His-tagged), Q99497 1-189 (natural protein) MASKRALVILAKGAEEMETVIPVDVMRRAGIKVTVAGLAGKDPVQCSRDVVICPDASLEDAKKEGPYDVVVLPGGNLGAQNLSESAAVKEILKEQENRKGLIAAICAGPTALLAHEIGFGSKVTTHPLAKDKMMNGGHYTYSENRVEKDGLILTSRGPGTSFEFALAIVEALNGKEVAAQVKAPLVLKD",,33,2

# Source: article doi:10.1101/2020.03.26.992446
